Test results taken from article PMC8812686 (Proceedings of the National Academy of Sciences of the …, 2022).

Target: the molecule itself
Experiment: SEC

B1: HCcmL, CcmL with a pentahistidine tag (Histag) inserted between D33 and G34 (natural protein, Thermosynechococcus elongatus BP-1)
chain: MKIARVCGTVTSTQKEDTLTGVKFLVLQYLGEDHHHHHGEFLPDYEVAADTVGAGQDEWVLVSRGSAARHIINGTDKPIDAAVVAIIDTVSRDNYLLYSKRTQY
- stoichiometry N: 5

B2: CcmL, pentameric vertex protein of the β-carboxysome from Thermosynechococcus elongatus BP-1 (natural protein)
chain: MKIARVCGTVTSTQKEDTLTGVKFLVLQYLGEDGEFLPDYEVAADTVGAGQDEWVLVSRGSAARHIINGTDKPIDAAVVAIIDTVSRDNYLLYSKRTQY
- stoichiometry N: 5
